According to patent US20220073631A1 (QYUNS THERAPEUTICS, published 2022):
Residue numbers refer to the chain shown, from its start.

Assays:
[1] = biological target: T1, human IL-4Rα (Shanghai Novoprotein Technology Co., Ltd) (human, UniProt P24394 26-232); assay: SPR, Biacore T200, antibody captured on protein A, antigen as analyte, 25 C, 1:1 model
T1 construct: Bought protein; also called hIL-4Rα; human interleukin-4 receptor alpha
Procedure: (§1) The protein A was chemically coupled to a CM5 chip, and an appropriate amount of the antibody was immobilized by a capture method such that the Rmax was less than 50 RU and the flow rate for the capture was 10 μl/min. The antigen was subject to gradient dilution, and the flow rate in the instrument was switched to 30 μl/min. The antigen was flowed through the reference channel and the channel with the immobilized antibody sequentially in an ascending order of concentration, and the running buffer was flowed through as a negative control. After each binding and dissociation was complete, the chip was regenerated with glycine, pH 1.5. Fitting was performed with the build-in software in the instrument according to a 1:1 binding model. The binding rate constant kₐ, the dissociation rate constant kd, and the equilibrium dissociation constant KD values of the antibody were calculated. Dupilumab was obtained by purchasing a commercially available medicine.

[2] = biological target: IL-4Rα on human cells (HEK Blue IL-4/IL-13, A549, TF-1, HFL-1, PBMCs) (human, UniProt P24394 26-825); assay: cell-based or functional assay
[3] = biological target: T2, hIL-4Rα-Mu244 (human, UniProt P24394 26-232); assay: SPR, Biacore T200, by the methods of Example 2
T2 construct: Printed positions fit the mature protein; also called S70Q/A71L/D72R; not shown: C-terminal his-tag
T2 chain: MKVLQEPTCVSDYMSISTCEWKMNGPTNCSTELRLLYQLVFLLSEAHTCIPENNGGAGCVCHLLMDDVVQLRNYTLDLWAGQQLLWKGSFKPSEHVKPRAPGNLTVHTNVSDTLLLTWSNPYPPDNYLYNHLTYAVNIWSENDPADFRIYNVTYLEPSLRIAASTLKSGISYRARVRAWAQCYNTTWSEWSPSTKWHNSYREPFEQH

[4] = biological target: T3, hIL-4Rα-Mu245 (human, UniProt P24394 26-232); assay: SPR, Biacore T200, by the methods of Example 2
T3 construct: Printed positions fit the mature protein; also called A71L/D72R/N73A; not shown: C-terminal his-tag
T3 chain: T2 chain with Q70S, N73A

[5] = biological target: T4, hIL-4Rα-Mu239 (human, UniProt P24394 26-232); assay: SPR, Biacore T200, by the methods of Example 2
T4 construct: Printed positions fit the mature protein; also called M65I/D66A/D67A; not shown: C-terminal his-tag
T4 chain: T2 chain with M65I, D66A, D67A, Q70S, L71A, R72D
Procedure: as §1
(§2) To further narrow down the key amino acids that PD2-31 binds to, multiple mutants of hIL-4Rα were designed in Loop 2 (V40FLLSEA46) and Loop 3 (M65[…]73) (Table 2). The wild-type hIL-4Rα (hIL-4Rα-ECD) and hIL-4Rα mutants were prepared using standard techniques. Briefly, the expression plasmids containing the extracellular domain of wild-type hIL-4Rα and different mutated hIL-4Rα were constructed and transfected into HEK 293F cells. After expression, the extracellular domain of wild-type hIL-4Rα and hIL-4Rα mutants with C-terminus his-tag were purified by Nickel chromatography. Purified proteins of wild-type hIL-4Rα and hIL-4Rα mutants were analyzed for interaction with PD2-31 and Dupilumab. The interaction was studied by Biacore T200, according to the methods in Example 2.

[6] = biological target: T5, hIL-4Rα-Mu240 (human, UniProt P24394 26-232); assay: SPR, Biacore T200, by the methods of Example 2
T5 construct: Printed positions fit the mature protein; also called D66A/D67A/V68R; not shown: C-terminal his-tag
T5 chain: T2 chain with D66A, D67A, V68R, Q70S, L71A, R72D
Procedure: as §1, §2

[7] = biological target: T6, hIL-4Rα-Mu243 (human, UniProt P24394 26-232); assay: SPR, Biacore T200, by the methods of Example 2
T6 construct: Printed positions fit the mature protein; also called V69F/S70Q/A71L; not shown: C-terminal his-tag
T6 chain: T2 chain with V69F, R72D
Procedure: as §1, §2

[8] = biological target: T7, hIL-4Rα-Mu241 (human, UniProt P24394 26-232); assay: SPR, Biacore T200, by the methods of Example 2
T7 construct: Printed positions fit the mature protein; also called D67A/V68R/V69F; not shown: C-terminal his-tag
T7 chain: T2 chain with D67A, V68R, V69F, Q70S, L71A, R72D
Procedure: as §1, §2

[9] = biological target: T8, hIL-4Rα-Mu453 (human, UniProt P24394 26-232); assay: SPR, Biacore T200, by the methods of Example 2
T8 construct: Printed positions fit the mature protein; also called D66A/D67A; not shown: C-terminal his-tag
Procedure: as §1, §2

[10] = biological target: T9, hIL-4Rα-Mu242 (human, UniProt P24394 26-232); assay: SPR, Biacore T200, by the methods of Example 2
T9 construct: Printed positions fit the mature protein; also called V68R/V69F/S70Q; not shown: C-terminal his-tag
T9 chain: T2 chain with V68R, V69F, L71A, R72D
Procedure: as §1, §2

B1: QX005N (HZD82-12) (antibody, V domains shown)
VH: EVQLVESGGGLVQPGGSLRLSCAASGFSLNSNAVGWVRQAPGKGLEYIGFINFSGITYYANWAKGRFTISRDNSKNTLYLQMNSLRAEDTAVYYCARGSAGSFDLWGQGTLVTVSS
VL: DIQMTQSPSSLSASVGDRVTITCQASESVYKNNYLAWYQQKPGKAPKLLIYRASNLASGVPSRFSGSGSGTDFTLTISSLQPEDFATYYCQGGYSSGMYPFGQGTKVEIK
notes: Humanized from rabbit clone #82, expressed as a full antibody in ExpiCHO-S cells (heavy chain 48.3 kDa, light chain 23.6 kDa)
[1]
  Kd: 0.207 nM
  koff: 9.9e-05 s⁻¹
  kon: 481000 M⁻¹ s⁻¹
[2]
  IC50, IL-4-induced CCL-11 release activity in HFL-1 cells (FIG. 7(B)): 0.0643 µg/mL
  IC50, IL-4-induced CCL-17 release activity in A549 cells (FIG. 5(B)): 0.0461 µg/mL
  IC50, IL-4-induced CCL-17 release activity in PBMCs (FIG. 9(B)): 0.0678 µg/mL
  IC50, IL-4-induced STAT6 phosphorylation activity in HEK Blue IL-4/IL-13 cells (FIG. 4(B)): 0.0065 µg/mL
  IC50, IL-4-induced proliferation activity of TF-1 cells (FIG. 6(B)): 0.0193 µg/mL
  IC50, IL-13-induced CCL-11 release activity in HFL-1 cells (FIG. 7(D)): 0.0895 µg/mL
  IC50, IL-13-induced CCL-17 release activity in A549 cells (FIG. 5(D)): 0.0495 µg/mL
  IC50, IL-13-induced CCL-17 release activity in PBMCs (FIG. 9(D)): 0.117 µg/mL
  IC50, IL-13-induced STAT6 phosphorylation activity in HEK Blue IL-4/IL-13 cells (FIG. 4(D)): 0.0213 µg/mL
  IC50, IL-13-induced proliferation activity of TF-1 cells (FIG. 6(D)): 0.0161 µg/mL

B2: Dupilumab (antibody, V domains shown)
VH: EVQLVESGGGLEQPGGSLRLSCAGSGFTFRDYAMTWVRQAPGKGLEWVSSISGSGGNTYYADSVKGRFTISRDNSKNTLYLQMNSLRAEDTAVYYCAKDRLSITIRPRYYGLDVWGQGTTVTVSS
VL: DIVMTQSPLSLPVTPGEPASISCRSSQSLLYSIGYNYLDWYLQKSGQSPQLLIYLGSNRASGVPDRFSGSGSGTDFTLKISRVEAEDVGFYYCMQALQTPYTFGQGTKLEIKR
[3]
  Kd: > 10 nM
[4]
  Kd: > 10 nM
[5]
  Kd: 0.223 nM
  koff: 5.63e-05 s⁻¹
  kon: 253000 M⁻¹ s⁻¹
[6]
  Kd: 4.07 nM
  koff: 0.000421 s⁻¹
  kon: 103000 M⁻¹ s⁻¹
[7]
  Kd: 0.0361 nM
  koff: 3.41e-05 s⁻¹
  kon: 945000 M⁻¹ s⁻¹
[8]
  Kd: 41.2 nM
  koff: 0.00444 s⁻¹
  kon: 108000 M⁻¹ s⁻¹
[9]
  Kd: 0.196 nM
  koff: 3.78e-05 s⁻¹
  kon: 193000 M⁻¹ s⁻¹
[10]
  Kd: 27.3 nM
  koff: 0.00357 s⁻¹
  kon: 131000 M⁻¹ s⁻¹
[2]
  IC50, IL-4-induced CCL-11 release activity in HFL-1 cells (FIG. 7(A)): 0.0968 µg/mL
  IC50, IL-4-induced CCL-11 release activity in HFL-1 cells (FIG. 7(B)): 0.0334 µg/mL
  IC50, IL-4-induced CCL-17 release activity in A549 cells (FIG. 5(A)): 0.0449 µg/mL
  IC50, IL-4-induced CCL-17 release activity in A549 cells (FIG. 5(B)): 0.0449 µg/mL
  IC50, IL-4-induced CCL-17 release activity in PBMCs (FIG. 9(A)): 0.029 µg/mL
  IC50, IL-4-induced CCL-17 release activity in PBMCs (FIG. 9(B)): 0.0436 µg/mL
  IC50, IL-4-induced STAT6 phosphorylation activity in HEK Blue IL-4/IL-13 cells (FIG. 4(A)): 0.00439 µg/mL
  IC50, IL-4-induced STAT6 phosphorylation activity in HEK Blue IL-4/IL-13 cells (FIG. 4(B)): 0.00454 µg/mL
  IC50, IL-4-induced proliferation activity of TF-1 cells (FIG. 6(A)): 0.0219 µg/mL
  IC50, IL-4-induced proliferation activity of TF-1 cells (FIG. 6(B)): 0.0188 µg/mL
  IC50, IL-13-induced CCL-11 release activity in HFL-1 cells (FIG. 7(C)): 0.0475 µg/mL
  IC50, IL-13-induced CCL-11 release activity in HFL-1 cells (FIG. 7(D)): 0.0869 µg/mL
  IC50, IL-13-induced CCL-17 release activity in A549 cells (FIG. 5(C)): 0.0373 µg/mL
  IC50, IL-13-induced CCL-17 release activity in A549 cells (FIG. 5(D)): 0.0465 µg/mL
  IC50, IL-13-induced CCL-17 release activity in PBMCs (FIG. 9(C)): 0.0984 µg/mL
  IC50, IL-13-induced CCL-17 release activity in PBMCs (FIG. 9(D)): 0.082 µg/mL
  IC50, IL-13-induced STAT6 phosphorylation activity in HEK Blue IL-4/IL-13 cells (FIG. 4(C)): 0.0128 µg/mL
  IC50, IL-13-induced STAT6 phosphorylation activity in HEK Blue IL-4/IL-13 cells (FIG. 4(D)): 0.0127 µg/mL
  IC50, IL-13-induced proliferation activity of TF-1 cells (FIG. 6(C)): 0.0205 µg/mL
  IC50, IL-13-induced proliferation activity of TF-1 cells (FIG. 6(D)): 0.0149 µg/mL
